{
  "source": "patent US20110287023A1",
  "about": "(AstraZeneca / MedImmune, published 2011)",
  "binders": {"B1": {"name": "human anti-HMG1 antibody S6 (antibody, V domains shown)", "VH": "EVQLLESGGGLVQPGGSLRLSCAASGFTFSWYDMSWVRQAPGKGLEWVSRISPSGGYTMYADSVKGRFTISRDNSKNTLYLQMNSLRAEDTAVYYCARLEVGATSGGTAFDIWGQGTMVTVSS", "VL": "not shown", "notes": "full length IgG1 made from a human Fab phage clone; two paragraphs print 'S4' for the PTA-6143 deposit; also called ATCC PTA-6143"}, "B2": {"name": "human anti-HMG1 antibody E11 (antibody, IgG1, V domains shown)", "VH": "EVQLLESGGGLVQPGGSLRLSCAASGFTFSRYQMNWVRQAPGKGLEWVSSISPSGGHTHYADSVKGRFTISRDNSKNTLYLQMNSLRAEDTAVYYCAKDGRQGKISTVDHWGQGTLVTVSS", "VL": "DIQMTQSPGTLSLSPGERATLSCRASQSVRSNFLAWYQQKPGQAPRLLIYGASRRASGIPDRFSGSGFGADFTLSISRLEPEDFAVYYCQQYGSSPNTFGQGSRVEIK", "notes": "full length IgG1 made from a human Fab phage clone"}, "B3": {"name": "human anti-HMG1 antibody S16 (antibody, IgG1, V domains shown)", "VH": "EVQLLESGGGLVQPGGSLRLSCAASGFTFSWYSMLWVRQAPGKGLEWVSYISPSGGFTNYADSVKGRFTISRDNSKNTLYLQMNSLRAEDTAVYYCARWDYNSGWYYDHWGQGTLVTVSS", "VL": "DIQMTQSPDTLSLSPGERATLSCRASQSVNSRNLAWYQQKPGQAPRLLIYGASTRATGIPDRFSGSVSGTEFTLTISSLQPDDFATYYCQQYNSYFTFGQGTKLEIK", "notes": "full length IgG1 made from a human Fab phage clone; also called ATCC PTA-6259"}},
  "key": {"[1]": {"target": "T1, HMGB1 in sera of septic peritonitis mice (mouse, UniProt P63158 1-215)", "T1 construct": "also called HMGB1 from sepsis sera (ELISA); peritonitis sera HMGB1", "T1 sequence (looked up)": "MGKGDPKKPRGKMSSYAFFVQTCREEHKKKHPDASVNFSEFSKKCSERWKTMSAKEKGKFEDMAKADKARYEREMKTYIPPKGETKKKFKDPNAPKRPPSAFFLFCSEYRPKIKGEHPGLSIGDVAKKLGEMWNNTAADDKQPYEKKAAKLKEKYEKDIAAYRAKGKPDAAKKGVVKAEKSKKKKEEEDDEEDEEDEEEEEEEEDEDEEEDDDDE", "experiment": "sandwich ELISA: antibody captured on anti-human Fc, peritonitis serum added, mouse anti-HMGB1 detection, OD 450", "experimental": "HMGB1 Detection from Biological Samples: For detection of the HMGB1 from AIA joint homogenates and peritonitis sera, sandwich ELISA was performed. Goat anti-human Fc (Pierce) 14 μg/ml in PBS was coated on Immunlon IV microtiter plate over night at 4° C. After washing and blocking with 5% milk 1 hr at room temperature, G4 or S6 in blocking buffer (10 μg/ml) were added to each well of the blocked plate. The plate was washed 1 hour later and 25 μl of AIA homogenates containing 0.8 μg/ml of HMGB1 or peritonitis sera containing 7 μg/ml of HMGB1 in 0.5 M NaCl/blocking buffer were added to the wells at two fold serial dilutions. The unbound materials were removed by washing one hr after incubation. The bound HMGB1 was detected by a mouse anti-HMGB1 antibody at 2 μg/ml followed by an anti-mouse antibody conjugated with horseradish peroxidase. Mouse peritonitis sera was obtained by heart puncture 7 days after infection with heat killed staphylococcus aureus. Joint lysate was prepared from the whole paw of AIA rats as described in Example 6 below. Human sepsis sera were purchased from a commercial source."}, "[2]": {"target": "T2, HMG1 purified from calf (bovine) thymus (bovine, UniProt P10103 2-215)", "T2 construct": "also called Calf thymus HMGB1; thymus HMG1", "T2 sequence (looked up)": "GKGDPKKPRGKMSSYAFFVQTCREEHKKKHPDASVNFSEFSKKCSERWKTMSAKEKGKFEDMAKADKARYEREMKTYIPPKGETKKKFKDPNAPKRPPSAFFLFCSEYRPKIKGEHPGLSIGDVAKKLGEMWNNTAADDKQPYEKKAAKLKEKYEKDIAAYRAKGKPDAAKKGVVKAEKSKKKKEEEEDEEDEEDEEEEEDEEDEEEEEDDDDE", "experiment": "blocking ELISA: thymus HMGB1 pre-incubated with the antibody, then added to coated RAGE/Fc (blocked partner: RAGE/Fc); one bar per antibody, the antibody's concentration is not given", "experimental": "HMG1 binding to RAGE-Ig by ELISA: 50 μl/well of RAGE-Fc fusion protein at 5 μg/ml in PBS was added to each well of an ELISA plate and incubated overnight at 4° C. The plate was then blocked with 200 μl of 5% milk at 37° C. for 1 hr and washed 3× with PBS/Tween. 50 μl/well of diluted HMGB1 solution. For dose curves, HMGB1 concentrations started at 4 ug/ml in PBS. For antibody blocking the HMGB1 was preincubated in another plate with human anti-HMG1 antibodies or buffer, then transferred to the RAGE-coated plate. The plates were then incubated at room temperature for 2 hours and washed 3×. To detect any HMG1 bound to the immobilized RAGE-Fc a mixture of biotinylated mouse anti-HMG1 mAbs (10D4, 4H11, 3E10 and 5C12) each at 1 ug/ml, total Ab: 4 ug/ml, were added to each well and the plate was incubated for 1 hour at room temperature. The plate was then washed and Strepavidin-HPR was added to each well and incubated 15 min. The plate was then washed 3× and blotted dry. 100 μl of TMB developing agent was added and the plate read at 650 nm. Values were calculated as percent of inhibition with HMG1 alone equal to 0% inhibition. The data in FIG. 9 and summarized in Table 1 represent the average of two separate experiments."}, "[3]": {"target": "T3, HMGB1 in joint lysate of adjuvant induced arthritis (AIA) rats (rat, UniProt P63159 2-215)", "T3 construct": "also called HMGB1 from arthritis joints; joint lysate HMGB1", "T3 sequence (looked up)": "T2 sequence (looked up) with E188D, D201E, E206D", "experiment": "immunoprecipitation from AIA rat joint lysate, Western blot; paragraph 81 gives lane 2 as S16", "experimental": "Immunoprecipitation and Western Blot: Anti-HMGB1 mAbs (G4 and S6) and isotype control were first biotinylated using EZ-Link Sulfo-NHS-LC-Biotin as instructed by the manufacturer (Pierce). After labeling, the mAb was tested for binding to HMGB1 by ELISA with unlabeled mAbs as controls. The biological samples, joint lysate (30 μl), was mixed with […] biotinylated G4, S6 or isotype control overnight at 4° C. in 300 μl IP buffer [containing 1×PBS, pH 7.2 (Invitrogen), 0.1% Tween 20, 0.5 M sodium chloride, 10 mM sodium butyrate, and a 1:100 dilution of Phosphatase Inhibitor Cocktail I (Sigma)]. For sepsis sera, Tween 20, sodium chloride, sodium butyrate, and Phosphatase Inhibitor Cocktail I were added to 500 μl sera with the same final concentration as IP buffer. Streptavidin Sepharose beads (GE Healthcare) were blocked in 4% BSA-PBS overnight at 4° C., then washed three times with PBS and resuspended in 1×PBS resulting in 50% slurry. The bead slurry (60 μl) was then added to the overnight mAb/sample mixture and mixed for 20 minutes at room temperature. The beads were washed once with PBS, five times with IP Buffer and then washed twice with PBS by spinning at 1000 g for two min. […] The bands were detected by LumiGlo substrate solution (KPL) after washing."}},
  "note": "Residue numbers refer to the chain shown, from its start.",
  "data": [
    {"binder": "B1", "values": [
      {"measurement": "binding result", "setting": "[1]", "result": "binds"}
    ]},
    {"binder": "B2", "values": [
      {"measurement": "binding result", "setting": "[2]", "result": "binds"}
    ]},
    {"binder": "B3", "values": [
      {"measurement": "binding result", "setting": "[3]", "result": "binds"}
    ]}
  ]
}
